Measured values as given in US20240116985A1 (published 2024).
Values belong to the binder of their own block, whether it stands above or below them. Starred links: 1 amine or outer side, 2 acyl side, 3 side chain; linkers in the order of their positions; H or OH if unused. Positions of bridges follow the written chain, without caps; N, C: chain ends. Non-standard residues stand in square brackets, D forms with d. Primed or numbered codes have the meaning given here. *: point of attachment. B5(10) = 2-amino-2-(pent-4-en-1-yl)hept-6-enoic acid, bis(4-pentenyl)glycine, stitching residue bearing both staples, C=CCCCC(CCCC=C)(N[*:1])C(=O)[*:2]; PyrS2(3) = (S)-3-amino-1-((pent-4-en-1-yloxy)carbonyl)pyrrolidine-3-carboxylic acid, stapling residue, C=CCCCOC(=O)N1CC[C@@](N[*:1])(C(=O)[*:2])C1; B5(5) = 2,2-bis(4-pentenyl)glycine, 2-amino-2-(pent-4-en-1-yl)hept-6-enoic acid (stitching residue), C=CCCCC(CCCC=C)(N[*:1])C(=O)[*:2]; PyrS2 = (S)-3-amino-1-((pent-4-en-1-yloxy)carbonyl)pyrrolidine-3-carboxylic acid, C=CCCCOC(=O)N1CC[C@@](N[*:1])(C(=O)[*:2])C1; Phe(2-Cl) = N[C@@H](Cc1ccccc1Cl)C(=O)O; Bta = N[C@@H](Cc1csc2ccccc12)C(=O)O; αAllylPro = C=CC[C@@]1(C(=O)O)CCCN1; Cha = N[C@@H](CC1CCCCC1)C(=O)O; S8 = C=CCCCCCC[C@](C)(N)C(=O)O; R5 = C=CCCC[C@@](C)(N)C(=O)O; Ms = CS(=O)(=O)*

Legend:
[1] = molecular target: T1, full-length beta-Catenin (Uniprot ID P35222) (Homo sapiens (Human), UniProt P35222 2-781); assay: fluorescence polarization competition, displacement of 5FAM-TCF4 10-53 from full-length beta-catenin
T1 construct: also called bCat; B-Catenin
T1 sequence: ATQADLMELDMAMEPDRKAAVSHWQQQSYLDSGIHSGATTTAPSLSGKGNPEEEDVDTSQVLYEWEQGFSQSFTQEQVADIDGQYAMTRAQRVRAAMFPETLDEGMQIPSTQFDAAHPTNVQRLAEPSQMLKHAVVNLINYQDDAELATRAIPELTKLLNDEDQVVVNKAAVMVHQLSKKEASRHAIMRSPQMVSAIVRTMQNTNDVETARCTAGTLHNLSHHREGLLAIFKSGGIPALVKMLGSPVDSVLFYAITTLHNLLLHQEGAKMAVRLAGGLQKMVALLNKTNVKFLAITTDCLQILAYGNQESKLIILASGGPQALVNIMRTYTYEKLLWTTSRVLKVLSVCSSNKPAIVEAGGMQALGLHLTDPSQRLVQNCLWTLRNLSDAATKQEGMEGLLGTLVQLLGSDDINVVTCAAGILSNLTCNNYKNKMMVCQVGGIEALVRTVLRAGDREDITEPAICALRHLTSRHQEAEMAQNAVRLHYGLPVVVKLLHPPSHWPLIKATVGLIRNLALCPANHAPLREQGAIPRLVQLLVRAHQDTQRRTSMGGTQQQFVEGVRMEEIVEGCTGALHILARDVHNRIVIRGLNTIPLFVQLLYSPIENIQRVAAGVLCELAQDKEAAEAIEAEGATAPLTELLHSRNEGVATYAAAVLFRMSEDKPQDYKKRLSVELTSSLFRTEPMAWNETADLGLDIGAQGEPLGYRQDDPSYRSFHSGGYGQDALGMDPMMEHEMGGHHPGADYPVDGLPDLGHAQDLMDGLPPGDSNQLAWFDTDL
Procedure: (§1) The plate was incubated protected from light for 60 minutes at 20° C. prior to read. Reads were performed on a CLARIOstar plate reader (BMG Labtech) in duplicate, and data were fitted to a 1:1 binding model with hill slope using an in-house script. All provided concentrations are final concentrations.

[2] = molecular target: T2, full-length beta-Catenin (Uniprot ID P35222) (Homo sapiens (Human), UniProt P35222 2-781); assay: fluorescence polarization competition; full-length beta-catenin + 5FAM-TCF4 10-53 probe
T2 construct: The FP protocol says 'full-length beta-Catenin (Uniprot ID P35222)'; also called bCat; B-Catenin
T2 sequence: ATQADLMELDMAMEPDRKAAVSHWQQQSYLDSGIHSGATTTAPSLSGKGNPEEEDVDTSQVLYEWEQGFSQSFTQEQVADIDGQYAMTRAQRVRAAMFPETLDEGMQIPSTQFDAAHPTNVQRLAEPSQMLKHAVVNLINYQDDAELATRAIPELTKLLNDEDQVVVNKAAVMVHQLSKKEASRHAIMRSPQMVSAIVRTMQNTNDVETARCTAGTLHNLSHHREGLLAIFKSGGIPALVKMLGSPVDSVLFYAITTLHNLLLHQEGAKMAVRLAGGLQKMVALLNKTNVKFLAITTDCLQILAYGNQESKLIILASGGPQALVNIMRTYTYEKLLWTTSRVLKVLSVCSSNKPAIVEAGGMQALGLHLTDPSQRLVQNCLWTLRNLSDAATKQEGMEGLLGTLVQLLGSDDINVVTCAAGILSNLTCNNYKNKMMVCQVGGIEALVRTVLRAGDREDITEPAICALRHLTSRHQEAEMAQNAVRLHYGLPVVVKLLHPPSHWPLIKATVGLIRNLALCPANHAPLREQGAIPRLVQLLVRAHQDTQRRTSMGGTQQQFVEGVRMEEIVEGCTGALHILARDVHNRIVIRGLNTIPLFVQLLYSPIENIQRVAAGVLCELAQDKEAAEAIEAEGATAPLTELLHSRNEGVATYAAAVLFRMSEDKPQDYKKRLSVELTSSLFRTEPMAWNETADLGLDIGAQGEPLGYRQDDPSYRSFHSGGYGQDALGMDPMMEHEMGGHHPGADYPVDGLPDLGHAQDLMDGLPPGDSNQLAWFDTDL
Procedure: as §1

[3] = molecular target: T3, full-length beta-Catenin (Uniprot ID P35222) (Homo sapiens (Human), UniProt P35222 2-781); assay: AlphaScreen competition; peptide titrated against full-length beta-catenin + biotin-TCF4(10-53)
T3 construct: The assay protocols say only 'full-length'; No tag is stated, although the AlphaScreen kit is a Histidine (Nickel Chelate) kit; also called B-Catenin; bCat
T3 sequence: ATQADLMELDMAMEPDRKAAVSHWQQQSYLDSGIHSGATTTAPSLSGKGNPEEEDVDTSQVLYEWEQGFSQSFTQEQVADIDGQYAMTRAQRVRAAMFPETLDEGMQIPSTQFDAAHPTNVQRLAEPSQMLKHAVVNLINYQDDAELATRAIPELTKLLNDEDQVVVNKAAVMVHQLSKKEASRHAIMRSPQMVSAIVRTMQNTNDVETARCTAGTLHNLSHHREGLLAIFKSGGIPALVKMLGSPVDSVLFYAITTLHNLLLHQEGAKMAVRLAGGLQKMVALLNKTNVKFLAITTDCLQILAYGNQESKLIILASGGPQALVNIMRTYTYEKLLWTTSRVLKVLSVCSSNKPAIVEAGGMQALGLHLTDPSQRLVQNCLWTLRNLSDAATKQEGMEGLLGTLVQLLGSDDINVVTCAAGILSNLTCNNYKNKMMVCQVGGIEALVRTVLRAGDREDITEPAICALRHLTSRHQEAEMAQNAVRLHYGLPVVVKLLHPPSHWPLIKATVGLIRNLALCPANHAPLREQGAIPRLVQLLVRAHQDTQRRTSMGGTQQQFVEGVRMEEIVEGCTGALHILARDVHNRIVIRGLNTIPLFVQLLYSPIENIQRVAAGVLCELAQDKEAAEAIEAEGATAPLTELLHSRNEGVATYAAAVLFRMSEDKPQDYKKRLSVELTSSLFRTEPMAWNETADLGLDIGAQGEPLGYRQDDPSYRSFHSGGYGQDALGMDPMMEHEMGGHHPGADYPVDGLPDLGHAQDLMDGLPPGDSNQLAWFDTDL
Procedure: as §1, with “Equal volume of the titrated peptide was added to the” for “The”, “and” for “was”, “incubated for 15 minutes at 20° C. Then 4 uL of donor and 4 uL acceptor beads at 10 ug/mL were added to the plate, for a 16 uL reaction pool and” for “incubated”

B-cat-Halo = molecular target: T4, B-cat-Halo (UniProt P35222 1-781); assay: cell-based or functional assay
T4 sequence (looked up): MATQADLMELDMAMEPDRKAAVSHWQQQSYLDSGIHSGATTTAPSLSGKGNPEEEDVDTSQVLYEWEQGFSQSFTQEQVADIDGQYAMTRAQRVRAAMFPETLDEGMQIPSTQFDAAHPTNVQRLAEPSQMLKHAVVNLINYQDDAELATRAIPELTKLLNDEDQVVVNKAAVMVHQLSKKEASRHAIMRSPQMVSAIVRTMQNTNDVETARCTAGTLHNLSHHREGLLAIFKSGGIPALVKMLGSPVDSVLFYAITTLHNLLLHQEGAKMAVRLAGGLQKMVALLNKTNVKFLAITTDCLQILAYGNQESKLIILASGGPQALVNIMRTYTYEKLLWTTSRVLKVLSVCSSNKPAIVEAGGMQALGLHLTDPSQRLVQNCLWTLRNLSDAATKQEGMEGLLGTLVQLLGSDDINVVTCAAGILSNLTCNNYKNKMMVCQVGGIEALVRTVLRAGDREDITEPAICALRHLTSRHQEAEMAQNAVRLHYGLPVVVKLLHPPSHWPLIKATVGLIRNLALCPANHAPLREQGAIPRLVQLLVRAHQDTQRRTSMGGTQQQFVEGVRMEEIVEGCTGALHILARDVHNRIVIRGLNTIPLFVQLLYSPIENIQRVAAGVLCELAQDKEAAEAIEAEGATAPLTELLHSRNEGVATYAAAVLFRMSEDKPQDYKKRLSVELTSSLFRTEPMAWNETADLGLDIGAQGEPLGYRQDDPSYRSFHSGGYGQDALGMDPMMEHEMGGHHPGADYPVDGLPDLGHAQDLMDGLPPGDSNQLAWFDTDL

[4] = molecular target: T3, full-length beta-Catenin (Uniprot ID …); assay: fluorescence polarization competition; peptide titrated against full-length beta-catenin + 5FAM-TCF4(10-53) probe
Procedure: as §1

[5] = molecular target: T5, full-length beta-Catenin (Uniprot ID P35222) (Homo sapiens (Human), UniProt P35222 2-781); assay: fluorescence polarization competition; full-length beta-catenin + 5FAM-TCF4(10-53) probe; peptide titrated
T5 construct: The fluorescence polarization protocol says only 'full-length'; also called bCat; B-Catenin
T5 sequence: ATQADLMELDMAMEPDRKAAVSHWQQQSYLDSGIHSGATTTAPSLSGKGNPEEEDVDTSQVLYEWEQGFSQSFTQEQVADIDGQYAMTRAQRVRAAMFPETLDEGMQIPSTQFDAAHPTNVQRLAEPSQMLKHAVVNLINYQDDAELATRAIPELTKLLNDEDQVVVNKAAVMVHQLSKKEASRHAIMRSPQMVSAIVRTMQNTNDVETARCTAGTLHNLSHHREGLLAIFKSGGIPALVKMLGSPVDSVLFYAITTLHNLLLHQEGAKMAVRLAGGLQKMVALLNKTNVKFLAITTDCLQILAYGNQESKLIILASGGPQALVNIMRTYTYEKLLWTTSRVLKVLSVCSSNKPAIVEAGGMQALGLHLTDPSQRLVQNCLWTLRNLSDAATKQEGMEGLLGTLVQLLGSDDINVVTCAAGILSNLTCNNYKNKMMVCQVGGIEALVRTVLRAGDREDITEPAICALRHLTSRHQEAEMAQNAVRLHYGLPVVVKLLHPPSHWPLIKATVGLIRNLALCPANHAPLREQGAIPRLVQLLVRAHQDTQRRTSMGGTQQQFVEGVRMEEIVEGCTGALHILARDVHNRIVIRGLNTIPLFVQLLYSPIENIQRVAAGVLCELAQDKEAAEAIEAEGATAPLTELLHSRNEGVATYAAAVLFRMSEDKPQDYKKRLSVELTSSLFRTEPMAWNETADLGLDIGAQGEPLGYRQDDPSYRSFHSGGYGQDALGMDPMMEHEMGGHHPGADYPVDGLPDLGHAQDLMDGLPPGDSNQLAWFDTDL
Procedure: as §1

IC50 [1]: 176 nM
Binder: Ac-PD[Cha][R5]DDAAFT[PyrS2(3)][Phe(2-Cl)][Bta]S-NH2 (staple 4-11, Stapled peptide, one staple) [I-1184]

IC50 [2]: 3.79 µM
B1: I-1296 (peptide)
peptide: Ac-[αAllylPro]DA[B5(10)]NTAAFL[PyrS2]F[Bta]Q-NH2
modifications: staple 1-4, 4-11; not fully specified; printed as Ac-PL3-Asp-Ala-B5-Asn-Thr-Ala-Ala-Phe-Leu-PyrS2-Phe-BztA-Gln-NH2
notes: later eluting HPLC peak (staple isomer composition); also called Ac-PL3-Asp-Ala-B5-Asn-Thr-Ala-Ala-Phe-Leu-PyrS2-Phe-BztA-Gln-NH2

EC50 [3]: 10 µM
NanoBRET % inh @ 10 uM (B-cat-Halo): -5.3%
EC50 [4]: 5 µM
B2: I-357 (peptide)
peptide: XDAXDDAAFVXFAQ
modifications: not fully specified; N-terminal Ac; C-terminal NH2; PL3 at 1, B5 at 4, S8 at 11 (stapled 1-4 and 4-11)
notes: Stapled peptide composition; Earlier-eluting isomer composition; also called Ac-PL3-Asp-Ala-B5-Asp-Asp-Ala-Ala-Phe-Val-S8-Phe-Ala-Gln-NH2

EC50 [5]: 88 nM
B3: I-711 (peptide)
peptide: Ms-[αAllylPro]DI[B5(5)]DEAAFQ[S8]F[Bta]Q-NH2
modifications: staple 1-4, 4-11
notes: Stapled peptide composition; Later-eluting HPLC isomer peak (I-710 is the earlier one); also called MeSO2-PL3-Asp-Ile-B5-Asp-Glu-Ala-Ala-Phe-Gln-S8-Phe-BztA-Gln-NH2
